Measured values from patent CN113372448A.

Molecular target: CIB-OVA (cimbuterol coupled to ovalbumin, detection/coating antigen) (UniProt P01012)
Test: indirect ELISA of soluble scFv (periplasmic extract), steps as in Example 2 (CIB-OVA coated); negative control pCANTAB-5E/HB2151

Sequence of UniProt P01012 (P01012 2-386 limits assumed, form in doubt): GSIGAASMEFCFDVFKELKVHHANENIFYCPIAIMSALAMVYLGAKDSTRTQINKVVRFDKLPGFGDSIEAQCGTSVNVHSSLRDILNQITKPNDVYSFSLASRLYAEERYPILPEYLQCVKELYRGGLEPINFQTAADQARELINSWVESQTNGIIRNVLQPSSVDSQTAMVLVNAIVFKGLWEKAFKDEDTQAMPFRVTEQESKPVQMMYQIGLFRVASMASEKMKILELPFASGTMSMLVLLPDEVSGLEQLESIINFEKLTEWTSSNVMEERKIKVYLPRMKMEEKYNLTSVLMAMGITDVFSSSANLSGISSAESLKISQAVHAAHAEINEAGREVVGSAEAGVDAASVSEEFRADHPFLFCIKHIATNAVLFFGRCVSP

B1: 5-CIB-ScFv (soluble anti-CIB single-chain antibody expressed from CIB-ScFv-pCANTAB5E in E. coli HB2151) (scFv, not shown: small tags and cut ends)
scFv: QVQLQESGADLVRPGTSVKVSCKASGYAFTNYLIEWVKQRPGQGLEWIGVINPGSGGTNYNEKFKGKATLTTDKSSSTAYMQLNSLTSEDSAVYFCKRPPMITTRRTGFDYWGQGTTVTVSSGGGGSGGGGSGGGGSDIELTQSPTTMAASPGEKITITCSATSSLSSNYLHWYQQKPGFSPKLLIYRTSNLASGVPTRFSGSGSGTSYSLTIGTMEAEDVATYYCHQYHRSPFTFGSGTKLEIKR
- 效价 (titre, P/N>2.1) (dilution factor (1:x)): 160
